Where two headings read alike, the source gives them in different places.
T1: J08 C.97ZA012V1V2 (HIV-1)
T1 chain: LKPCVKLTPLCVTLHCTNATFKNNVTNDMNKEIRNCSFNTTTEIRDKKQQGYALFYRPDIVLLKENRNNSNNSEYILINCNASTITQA

T2: AE.A244 V1/V2 Tags N156QN160Q (HIV-1)
T2 chain: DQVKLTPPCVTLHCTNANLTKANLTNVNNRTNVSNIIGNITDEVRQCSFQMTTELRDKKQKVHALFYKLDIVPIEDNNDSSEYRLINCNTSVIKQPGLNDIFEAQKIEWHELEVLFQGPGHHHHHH

T3: B.63521_V1V2 Tags
T3 Env construct: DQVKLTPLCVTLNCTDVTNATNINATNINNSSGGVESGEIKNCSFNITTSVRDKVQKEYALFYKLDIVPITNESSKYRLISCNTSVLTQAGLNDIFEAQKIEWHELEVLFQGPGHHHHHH

T4: gp70 B.CaseA2 V1/V2 (HIV-1 V1V2 on murine leukemia virus gp70)
T4 construct: also called B.gp70CaseA2 V1/V2; gp70 B.CaseAV1V2
T4 chain: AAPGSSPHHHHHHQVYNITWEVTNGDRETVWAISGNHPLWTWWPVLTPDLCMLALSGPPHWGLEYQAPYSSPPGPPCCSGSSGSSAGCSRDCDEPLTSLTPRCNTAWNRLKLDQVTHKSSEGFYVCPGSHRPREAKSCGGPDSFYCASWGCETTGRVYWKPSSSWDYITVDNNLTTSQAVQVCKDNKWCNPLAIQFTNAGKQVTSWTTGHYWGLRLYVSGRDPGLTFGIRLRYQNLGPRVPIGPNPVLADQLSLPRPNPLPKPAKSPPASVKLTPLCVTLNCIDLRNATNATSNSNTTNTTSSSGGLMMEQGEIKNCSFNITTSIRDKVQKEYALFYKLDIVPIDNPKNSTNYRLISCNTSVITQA


Key:
AE.A244 gp120 [1] = molecular target: AE.A244 gp120 (HIV-1)
92TH023 gp120 = 92TH023 gp120 (HIV-1)
AE.A244 gp120 [2] = molecular target: T5, AE.A244 gp120 (HIV-1); assay: ELISA
T5 construct: also called AE.A244 gD-gp120; E.A244gDneg

AE.A244 gD+ gp120 [3] = molecular target: T6, AE.A244 gD+ gp120 (HIV-1); assay: ELISA
T6 construct: domain: gp120; also called AE.A244 gp120gD+

gp70 A.92RW020V1V2 = gp70 A.92RW020V1V2 (murine leukemia virus; HIV-1); assay: ELISA
J08 A.92RW020V1V2 = J08 A.92RW020V1V2 (HIV-1); assay: ELISA
J08 C.97ZA012V1V2 = molecular target: T1, J08 C.97ZA012V1V2; assay: ELISA
J08 C.ZM109.V1V2 = J08 C.ZM109.V1V2 (HIV-1); assay: ELISA
J08 C.ZM109V1V2 N173D = J08 C.ZM109V1V2 N173D (HIV-1); assay: ELISA
AE.A244 V1V2 Tags = AE.A244 V1V2 Tags (HIV-1); assay: ELISA
AE.A244 gp120 [4] = molecular target: T5, AE.A244 gp120; assay: ELISA; remark: listed apart in the source
AE.A244 gD+ gp120 [5] = molecular target: T6, AE.A244 gD+ gp120; assay: ELISA; remark: listed apart in the source
[6] = molecular target: T7, AE.A244 V1/V2 tags, natively deglycosylated (HIV-1); assay: ELISA
T7 construct: also called AE.A244V1V2 tags Degly

AE.A244 gp120 delta 11 = molecular target: T8, AE.A244 gp120 delta 11 (HIV-1); assay: ELISA
T8 construct: also called E.A244gp120Δ11; AE.A244 Δ11 gp120

AE.A244 gp120D11/K169V = molecular target: T9, AE.A244 gp120D11/K169V (HIV-1); assay: ELISA
T9 construct: also called A244 gp120 K169V; AE.A244 gp120/K169V

[7] = molecular target: T10, AE.A244 gp120 D11/K169V/V172E/H173Y (HIV-1); assay: ELISA
T10 construct: also called A244 gp120 Mut3

AE.703359 gp120D11 = molecular target: T11, AE.703359 gp120D11 (HIV-1); assay: ELISA
T11 construct: also called AE; 703359 gp120 WT; AE.703357 (other spelling in the text)

AE.703359 gp120D11/Q169K = molecular target: T12, AE.703359 gp120D11/Q169K (HIV-1); assay: ELISA
T12 construct: also called AE.703359 gp120 Q169K

[8] = molecular target: T13, AE.703359 gp120D11/Q169K/R170Q/Q173H (HIV-1); assay: ELISA
T13 construct: also called AE.703359 gp120 Mut3

AE.427299 gp120D11 = molecular target: T14, AE.427299 gp120D11 (HIV-1); assay: ELISA
T14 construct: also called AE.427299 gp120 WT

AE.427299 gp120D11/Q169K = molecular target: T15, AE.427299 gp120D11/Q169K (HIV-1); assay: ELISA
T15 construct: also called AE.427299 gp120 Q169K

[9] = molecular target: T16, AE.427299 gp120/R168K/Q169K/Y173H/A174V (HIV-1); assay: ELISA
T16 construct: also called AE.427299 gp120 Mut4

[10] = molecular target: T2, AE.A244 V1/V2 Tags N156QN160Q; assay: ELISA
B. 684-6 gp140C = assay: ELISA, OD405
B.62357 140C = molecular target: T17, B.62357 140C; assay: ELISA, OD405
T17 construct: also called B.62357 gp140C

B.63521_V1V2 Tags = molecular target: T3, B.63521_V1V2 Tags; assay: ELISA, OD405
Con 6 gp120 = assay: ELISA, OD405
B.HXB/BAL gp140CFI = molecular target: T18, B.HXB/BAL gp140CFI (HIV-1, UniProt P04578 33-680); assay: ELISA, OD405
T18 construct: also called B.HxB/Ba gp140 CFI

gp70 B.CaseA2 V1/V2 [11] = molecular target: T4, gp70 B.CaseA2 V1/V2; assay: ELISA
A.Q23 V1V2 tags [12] = molecular target: A.Q23 V1V2 tags (HIV-1); assay: ELISA
gp70 B.CaseA2 V1/V2 [13] = molecular target: T4, gp70 B.CaseA2 V1/V2; assay: ELISA
A.Q23 V1V2 tags [14] = molecular target: A.Q23 V1V2 tags (HIV-1); assay: ELISA; remark: listed apart in the source

Row | Binder | IC50 (AE.A244 gp120 [1]) | IC50 (92TH023 gp120) | EC50 (AE.A244 gp120 [2]) | EC50 (AE.A244 gD+ gp120 [3]) | EC50 (gp70 A.92RW020V1V2) | EC50 (J08 A.92RW020V1V2) | EC50 (J08 C.97ZA012V1V2) | EC50 (J08 C.ZM109.V1V2) | EC50 (J08 C.ZM109V1V2 N173D) | EC50 (AE.A244 V1V2 Tags) | EC50 (AE.A244 gp120 [4]) | EC50 (AE.A244 gD+ gp120 [5]) | EC50 [6] | EC50 (AE.A244 gp120 delta 11) | EC50 (AE.A244 gp120D11/K169V) | EC50 (AE.703359 gp120D11/Q169K) | EC50 [8] | binding result [10] | EC50 (gp70 B.CaseA2 V1/V2 [11]) | EC50 (A.Q23 V1V2 tags [12]) | also measured
1 | CH59 (antibody, V domains shown, also called mAb CH59) VH: EVQLVESGGGLVQPGRSLRLSCAASGFTFDDGAMHWVRQAPGKGLEWVSGISWNSNIIAYADSVKGRFTISRDNAKNSLYLEMNSLRVEDTALYYCAKDSPRGELPLNYWGQGTLVTVSS VL: SYELTQPPSVSVSPGQTARITCSGDALPKNYAYWYQQKSGQAPVLVIYEDSKRPSGIPERFSGSSSGTMATLTISGAQVEDEADYYCYSTDSSGNHRVFGGGTKLTVL | < 10 nM | < 10 nM | 0.03 nM | 0.04 nM | 235 nM | 377 nM | 107 nM | 1.16 nM | 22 nM | 0.0018 nM | 0.03 nM | 0.04 nM | 0.0015 nM | 0.029 µg/mL | 0.58 µg/mL | 1.2 µg/mL | 0.05 µg/mL | binds | – | – | binding result [7]: no binding; binding result (AE.703359 gp120D11): no binding; binding result (AE.427299 gp120D11): no binding; binding result (AE.427299 gp120D11/Q169K): no binding; EC50 [9]: 0.03 µg/mL; binding result (B. 684-6 gp140C): no binding (tested: 10 ug/ml); binding result (B.62357 140C): no binding (tested: 10 ug/ml); binding result (B.63521_V1V2 Tags): no binding (tested: 10 ug/ml); binding result (Con 6 gp120): no binding (tested: 10 ug/ml); binding result (B.HXB/BAL gp140CFI): no binding (tested: 10 ug/ml)
2 | PG16 (antibody, V domains shown, also called mAb PG16; bnAb PG16) VH: QEQLVESGGGVVQPGGSLRLSCLASGFTFHKYGMHWVRQAPGKGLEWVALISDDGMRKYHSDSMWGRVTISRDNSKNTLYLQFSSLKVEDTAMFFCAREAGGPIWHDDVKYYDFNDGYYNYHYMDVWGKGTTVTVSS VL: QSALTQPASVSGSPGQTITISCNGTSSDVGGFDSVSWYQQSPGKAPKVMVFDVSHRPSGISNRFSGSKSGNTASLTISGLHIEDEGDYFCSSLTDRSHRIFGGGTKVTVL | – | 10 to 100 nM | – | 15 nM | – | – | – | – | – | 5.6 nM | – | 15 nM | – | – | – | – | – | no binding (tested: 100 ug/ml) | – | – | –
3 | 697D (antibody, V domains shown, also called mAb 697D; V2 conformational mAb 697D) VH: QVQLVQSGAEVKKPGSSVKVSCKASGGNFNTYTISWVRQAPGQGLEWMGRIIPIFGIVNPAQKFPGRVTINVDKSTNTAYMELSSLRSEDTAVYYCATSGVGLHFGYFDYWGQGTQVTVSS VL: QSVLTQPPSVSGAPGQRVTISCTGSSSNIGAHYDVHWYQQLPGTAPKLLIYGNSNRPSGVPDRFSGSKSGTSASLAITGLQAEDEADYYCQSYDSSLSGYVFGTGTKVTVL | < 10 nM | – | 0.8 nM | – | 14 nM | 0.07 nM | 0.06 nM | 3 nM | 0.41 nM | 0.6 nM | 0.8 nM | – | 3.6 nM | 0.1 µg/mL | 0.06 µg/mL | 0.51 µg/mL | 0.12 µg/mL | – | 0.33 nM | > 66.7 nM | EC50 [7]: 0.08 µg/mL; EC50 (AE.703359 gp120D11): 0.21 µg/mL; EC50 (AE.427299 gp120D11): 0.07 µg/mL; EC50 (AE.427299 gp120D11/Q169K): 0.13 µg/mL; binding result [9]: no binding; EC50 (gp70 B.CaseA2 V1/V2 [13]): 0.08 nM; EC50 (A.Q23 V1V2 tags [14]): > 66.7 nM
4 | 697D reverted unmutated ancestor antibody (antibody, V domains shown, also called 697D RUA) VH: QVQLVQSGAEVKKPGSSVKVSCKASGGTFSSYTISWVRQAPGQGLEWMGRIIPILGIANYAQKFQGRVTITADKSTSTAYMELSSLRSEDTAVYYCATSGVGLHFGYFDYWGQGTLVTVSS VL: QSVLTQPPSVSGAPGQRVTISCTGSSSNIGAGYDVHWYQQLPGTAPKLLIYGNSNRPSGVPDRFSGSKSGTSASLAITGLQAEDEADYYCQSYDSSLSGYVFGTGTKVTVL | – | – | – | – | – | – | – | – | – | – | – | – | – | – | – | – | – | – | > 667 nM | > 667 nM | EC50 (gp70 B.CaseA2 V1/V2 [13]): > 667 nM; EC50 (A.Q23 V1V2 tags [14]): > 667 nM

— US9988424 (DUKE UNIVERSITY, dated 2018)
